Source: patent US20240180856A1, “COMPOSITIONS, […] SYSTEMS, AND METHODS USEFUL IN TUMOR […]” (published 2024)
Positions of bridges follow the written chain, without caps; N, C: chain ends. Non-standard residues stand in square brackets, D forms with d. Groups on a side chain read outwards from the residue. Primed or numbered codes have the meaning given here. No end group written: not given here. *: point of attachment. DOTA = O=C(O)CN1CCN(CC(=O)O)CCN(CC(=O)*)CCN(CC(=O)O)CC1; Biotin = O=C1N[C@H]2[C@H](CS[C@H]2CCCCC(=O)*)N1; Butanoyl(4-(4-I-phenyl)) = O=C(CCCc1ccc(I)cc1)*; Butanoyl(4-(4-MePh)) = Cc1ccc(CCCC(=O)*)cc1; Lys(N3) = [N-]=[N+]=NCCCC[C@H](N)C(=O)O; FB = fluorobenzaldehyde oxime; PEG10′ = PEG spacer, 10 units; PEG3′ = PEG spacer, 3 units; PEG7′ = PEG linker, 7 units; AO = aminooxy group, NO*; Pra = C#CC[C@H](N)C(=O)O

What was measured:
[1] = molecular target: CD-1 mouse plasma proteins; experiment: plasma protein binding, equilibrium dialysis, LC-MS/MS; control
human plasma proteins [2] = experiment: as above
[3] = molecular target: CD-1 mouse plasma proteins; experiment: plasma protein binding, equilibrium dialysis, LC-MS/MS
human plasma proteins [4] = experiment: as above
[5] = molecular target: His-tagged FOLR1 human recombinant protein (11241-H08H, SinoBiological) (human) (UniProt P15328); experiment: ELISA, linker screen
[6] = molecular target: His-tagged FOLR1 human recombinant protein (11241-H08H, SinoBiological) (human) (UniProt P15328); experiment: ELISA
[7] = molecular target: FOLR1 on OVCAR3 cells (human ovarian adenocarcinoma, FOLR1 (+) cell line) (human) (UniProt P15328)
[8] = molecular target: CD-1 mouse plasma proteins; experiment: plasma protein binding; value marked (FB)
human plasma proteins [9] = experiment: plasma protein binding; value marked (FB)
[10] = molecular target: mouse recombinant FOLR1 (rMuFOLR1) (mouse, UniProt P35846); experiment: ELISA
[11] = molecular target: His-tagged FOLR1 human recombinant protein (11241-H08H, SinoBiological) (human) (UniProt P15328); experiment: ELISA; remark: listed apart in the source
[12] = molecular target: FOLR1 on OVCAR3 cells (human ovarian adenocarcinoma, FOLR1 (+) cell line) (human) (UniProt P15328); experiment: flow cytometry on OVCAR3 cells, no folate
[13] = molecular target: His-tagged FOLR1 human recombinant protein (11241-H08H, SinoBiological) (human) (UniProt P15328); experiment: ELISA, against folate as reference
[14] = molecular target: FOLR1 on OVCAR3 cells (human ovarian adenocarcinoma, FOLR1 (+) cell line) (human) (UniProt P15328); experiment: flow cytometry on OVCAR3 cells, with 0.1 µg/mL free folate as competitor

Row | Plasma % Bound [3] [%] | Plasma % Bound (human plasma proteins [4]) [%] | EC50 [6] [nM] | Molecule | also measured
1 | – | – | 10000 | [Pra][dD][dE][dR][dY][dT][Lys(N3)] (triazole N-C) [deryt (SEQ ID NO:20) macrocyclic peptide ligand (PCC)] | –
2 | – | – | 0.107 | [dH][dS][dH][dT][dA][Lys(N3)] (triazole N-C; not fully specified (N-terminus); also: folate joined through PEG linker and Tz (triazole) attachment) [folate-hshta Tz heterobiligand] | –
3 | – | – | 0.16 | K[dD][dE][dR][dY][dT] (not fully specified (residue 1, C-terminus, bridges); also: macrocycle (click Pra/Az4 or amide variant), ends not placed) [Lys(PEG3-Folate)-deryt heterobiligand] | –
4 | – | – | 0.27 | [dD][dE][dR][dY][dT][Lys(N3)] (triazole N-C; not fully specified (N-terminus); printed as Pra(Az4-PEG3-folate)-deryt; also: N-terminal Pra joined by Tz (triazole) linker to Az4-PEG3-folate) [Pra(Az4-PEG3-folate)-deryt heterobiligand] | –
5 | – | – | 3920 | [Pra][dH][dS][dH][dT][dA][Lys(N3)] (triazole N-C; also: further groups not given here) [hshta (SEQ ID NO:6) macrocyclic peptide ligand (PCC)] | EC50 [10]: 2100 nM; EC50 [11]: 3400 nM
6 | – | – | 0.149 | [dK][dY][dE][dE][dT][Lys(N3)] (triazole N-C; not fully specified (N-terminus); also: folate joined through PEG linker and Tz (triazole) attachment) [folate-kyeet Tz heterobiligand] | –
7 | – | – | > 10000 | [Pra][dK][dY][dE][dE][dT][Lys(N3)] (triazole N-C) [kyeet (SEQ ID NO:9) macrocyclic peptide ligand (PCC)] | –
8 | – | – | 0.065 | Fol-[dH][dS][dH][dT][dA][PEG10′][PEG10′]K(Biotin) (not fully specified (bridges); printed as folate-hshta) [folate-hshta (SEQ ID NO:6) NTerm heterobiligand, Folate-hshta-PEG10-PEG10-K(Biotin)] | percentage of OVCAR3 cells binding [12]: 76.6%; fold greater affinity than folate itself [13]: 30 fold; EC50 [10]: 0.33 nM; percentage of OVCAR3 cells binding [14]: 57%; EC50 [5]: 0.18 nM; EC50 [11]: 0.35 nM

The next lines start with the molecule.

Row | Molecule | Plasma % Bound [3] [%] | Plasma % Bound (human plasma proteins [4]) [%] | EC50 [6] [nM] | also measured
9 | Octreotide Acetate (peptide) | – | – | – | Plasma % Bound [1]: 62.4%; Plasma % Bound (human plasma proteins [2]): 59.4%
10 | Fol-[dH][dS][dH][dT][dA]GFK(DOTA) (not fully specified (residue 5, bridges)) [Compound #6307, Fol-hshta-PEG3-Gly-Phe-Lys(DOTA)] | 40.6 | 41.3 | – | –
11 | {Fol-PEG7′}-[dH][dS][dH][dT][dA] (also: triazole macrocycle (Pra/Az4 click), ends not placed) [Folate-PEG7-hshta heterobiligand] | – | – | – | EC50 [5]: 1 nM
12 | Fol-[dH][dS][dH][dT][dA]K(Butanoyl(4-(4-MePh)))[PEG10′][PEG10′]K(Biotin) (not fully specified (some residues, bridges); printed as Folate-hshta-MPBA) [Folate-hshta-MPBA: folate-hshta with the tag Lys(4-MPBA)-PEG10-PEG10-Lys(Biotin)] | – | – | 0.11 | –
13 | Fol-P[dH][dS][dH][dT][dA] (not fully specified (residue 1, C-terminus, bridges)) [Folate-Pro-hshta heterobiligand] | – | – | – | EC50 [5]: 0.9 nM
14 | Fol-[dH][dS][dH][dT][dA]K(Butanoyl(4-(4-MePh)))GFK(DOTA) (not fully specified (residue 5, bridges)) [Compound #6305, folate-hshta-Lys(MPBA)-Gly-Phe-Lys(DOTA) (SEQ ID NO:6)] | 96.3 | 98.3 | – | –
15 | Fol-[dH][dS][dH][dT][dA]K(FB) (not fully specified (residue 5, bridges)) [Compound #2, Fol-hshta-PEG3-Lys(FB)] | 20.2 | 43 | – | –
16 | Fol-[dH][dS][dH][dT][dA]K(DOTA)[PEG10′][PEG10′]K(Biotin) (not fully specified (some residues, bridges); printed as Folate-hshta-DOTA) [Folate-hshta-DOTA: folate-hshta with the tag Lys(DOTA)-PEG10-PEG10-Lys(Biotin)] | – | – | 0.098 | –
17 | Fol-[dH][dS][dH][dT][dA] (not fully specified (C-terminus, bridges); also: DyLight 650 label, site not given here) [DyLight650-labeled folate-hshta (SEQ ID NO:6) Nterm heterobiligand] | – | – | – | percentage of positively stained cells after acid wash (flow cytometry) [7]: 54.2%
18 | Fol-[dH][dS][dH][dT][dA]K(Butanoyl(4-(4-I-phenyl)))MVK(DOTA) (not fully specified (residue 5, bridges)) [Compound #1306, folate-hshta-Lys(IPBA)-M-V-Lys(DOTA) (SEQ ID NO:6)] | 97.1 | 97.3 | – | –
19 | Fol-[dH][dS][dH][dT][dA]K(DOTA) (not fully specified (residue 5, bridges); printed as folate-hshta-PEG3-Lys(DOTA)) [Compound #1189, Fol-hshta-PEG3-Lys(DOTA)] | 29.5 | 46 | – | –
20 | Fol-[dH][dS][dH][dT][dA]K(Butanoyl(4-(4-MePh)))K(DOTA) (not fully specified (residue 5, bridges); printed as folate-hshta-PEG3-Lys(MPBA)-Lys(DOTA)) [Compound #2809, folate-hshta-PEG3-Lys(MPBA)-Lys(DOTA) (SEQ ID NO:6)] | 92.1 | 83.3 | – | –
21 | Fol-[dH][dS][dH][dT][dA]K(Butanoyl(4-(4-MePh)))GFK([PEG3′-DOTA]) (not fully specified (residue 5, bridges)) [Compound #3302, Fol-hshta-Lys(4-MPBA)-Gly-Phe-Lys(PEG3-DOTA)] | 96.5 | 94.9 | – | –
22 | Fol-[dH][dS][dH][dT][dA]GFK(AO) (not fully specified (residue 5, bridges); printed as Fol-hshta-Gly-Phe-Lys(AO)) [Compound #3303, Fol-hshta-Gly-Phe-Lys(AO)] | – | – | – | Plasma % Bound [8]: 75.5%; Plasma % Bound (human plasma proteins [9]): 81%
23 | Fol-[dH][dS][dH][dT][dA]K(Butanoyl(4-(4-I-phenyl)))GFK(DOTA) (not fully specified (residue 5, bridges)) [Compound #1307, folate-hshta-Lys(IPBA)-Gly-Phe-Lys(DOTA) (SEQ ID NO:6)] | 99.6 | 99.5 | – | –
24 | Fol-G[dH][dS][dH][dT][dA] (not fully specified (residue 1, C-terminus, bridges)) [Folate-Gly-hshta heterobiligand] | – | – | – | EC50 [5]: 0.9 nM
25 | [dH][dS][dH][dT][dA]GFK(DOTA) (not fully specified (residue 5, N-terminus, bridges); printed as folate-hshta-Gly-Phe-Lys(DOTA)) [Compound #7327, folate-hshta-Gly-Phe-Lys(DOTA) (SEQ ID NO:6)] | 40.9 | 40.3 | – | –
26 | [Pra][dD][dE][dR][dY][dT][Lys(N3)] (triazole N-C; also: conjugated to folate, attachment not said) [folate-deryt (SEQ ID NO:20) heterobiligand (construct not specified)] | – | – | – | EC50 [5]: 0.28 nM
